# Data as given in patent US20210130799.
# What was measured:
# Test in all cases: cleavage_in_vitro
# [1] = target: T1, TtCsm6 (Thermus thermophilus) (UniProt Q53W17); conditions: cyclic, 3'-5' linked; c(AMP)4 amount required to activate RNase
# T1 sequence: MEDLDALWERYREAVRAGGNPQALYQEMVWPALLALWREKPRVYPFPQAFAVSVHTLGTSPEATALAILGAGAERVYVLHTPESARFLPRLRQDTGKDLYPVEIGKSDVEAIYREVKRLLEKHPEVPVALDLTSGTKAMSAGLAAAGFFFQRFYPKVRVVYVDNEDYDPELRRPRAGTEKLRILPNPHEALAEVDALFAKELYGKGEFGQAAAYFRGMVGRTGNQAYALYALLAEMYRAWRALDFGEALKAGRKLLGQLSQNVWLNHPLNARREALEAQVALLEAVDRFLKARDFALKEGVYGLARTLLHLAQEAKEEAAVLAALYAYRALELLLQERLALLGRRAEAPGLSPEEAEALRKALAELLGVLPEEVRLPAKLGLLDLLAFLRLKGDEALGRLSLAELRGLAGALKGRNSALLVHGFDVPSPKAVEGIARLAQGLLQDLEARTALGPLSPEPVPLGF
# [2] = system: StCsm6 (Streptococcus thermophilus DGCC8004)
# [3] = system: StCsm6' (Streptococcus thermophilus DGCC8004)
# [4] = cyclic, 3'-5' linked, c(AMP)6 amount sufficient to activate RNase on RNA NS
sequence,measurement,setting,value
AAAA [c(AMP)4],activity,[1],50 nM
AAAAAA [c(AMP)6],activity,[2]; [4],0.5 nM
same,activity,[3]; [4],5 nM
GGGCGGCAAAUUGAGGAUUUCGUAACUGUUUAAUUCUGUUCACUUAUUCCACCAACAAAAGGUGGCGA [RNA NS],activity,"[2]; lowest StCsm6 concentration for degradation with 0.5 uM cyclic oligoadenylate mix, 1 uM needed without, 1 mM EDTA, 37 C",1 nM
same,activity,"[3]; StCsm6' concentration for degradation with cyclic oligoadenylates, 1 uM needed without, 1 mM EDTA, 37 C",1 nM
